From patent publication US20110053865A1 (Ablynx, published 2011) come the findings set out here.

Where “and” joins values, the source holds several entries; their conditions need not be identical. Equal values may be shown once. Read-outs that look alike come from different tables or passages of the source.

Assay [1] has as its target T1, recombinant human IL-23 (p19/p40) (human, UniProt Q9NPF7 20-189; P29460 23-328).
T1 construct: Bought heterodimer (R&D Systems or eBioscience); biotinylated in the alpha-screens; also called hIL-23
T1 sequence (looked up) 1: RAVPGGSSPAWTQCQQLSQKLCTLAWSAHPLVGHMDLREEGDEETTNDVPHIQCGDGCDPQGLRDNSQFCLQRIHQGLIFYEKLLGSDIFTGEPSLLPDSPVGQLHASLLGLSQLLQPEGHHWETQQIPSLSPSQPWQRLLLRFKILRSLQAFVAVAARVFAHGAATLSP
T1 sequence (looked up) 2: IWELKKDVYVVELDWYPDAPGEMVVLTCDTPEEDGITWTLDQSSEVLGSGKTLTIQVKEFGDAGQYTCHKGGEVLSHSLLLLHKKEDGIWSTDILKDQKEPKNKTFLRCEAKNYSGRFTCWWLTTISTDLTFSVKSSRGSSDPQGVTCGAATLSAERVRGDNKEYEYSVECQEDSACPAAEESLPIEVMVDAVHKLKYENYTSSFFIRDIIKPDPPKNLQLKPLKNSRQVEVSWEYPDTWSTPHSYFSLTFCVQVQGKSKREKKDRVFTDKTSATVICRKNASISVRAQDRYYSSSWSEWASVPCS
Nature of the assay: comp alpha-screen hIL-23.

Assay [2] concerns the target T1, recombinant human IL-23 (p19/p40). In words: 'potency assay', not specified (probably the inhibition ELISA of Example 34).
Assay [3] has the same target. Nature of the assay: SPR Biacore, hIL-23.
Assay [4] has the same target. Nature of the assay: SPR Biacore, eBiosc hIL-23.
Assay [5] has the same target. Nature of the assay: SPR Biacore, hIL-23. The source holds these as a separate data set.
The target is the same in assay [6]. Nature of the assay: inhibition ELISA, hIL-23/hIL-23R-Fc.
Description: Visualisation was performed with enhanced soluble 3,3′,5,5′-tetramethylbenzidine (esTMB) colouring reagent, after which the coloring reaction was stopped with 1N HCl. The absorbance was measured at 450 nm.
Assay [7] shares this target. Nature of the assay: cell-based or functional assay.
The target in assay [8] is cynomolgus IL-23 (cynomolgus). In words: cell-based or functional assay.
In assay [9] the target is T1, recombinant human IL-23 (p19/p40). In words: cell-based or functional assay. The source holds these as a separate data set.
For assay [10] the target is unchanged. In words: SPR Biacore, hIL-23. The source holds these as a separate data set.
Assay [11] shares this target. In words: SPR Biacore, hIL-23. This is another data set of the same source.
Assay [12] shares this target. In words: cell-based or functional assay. The source holds these as a separate data set.
For assay [13] the target is unchanged. Nature of the assay: alpha-screen, hIL-23/IL-23R.
For assay [14] the target is unchanged. In words: SPR Biacore 3000, hIL-23 on chip.
Description: Binding kinetics of the second round variants are in depth analysed by Surface Plasmon Resonance (Biacore 3000). […] Nanobody binding was assessed at one concentration (100 nM). Each Nanobody was injected for 4 minutes at a flow rate of 45 μl/min to allow binding to chip-bound antigen. Next, binding buffer without Nanobody was sent over the chip at the same flow rate to allow spontaneous dissociation of bound Nanobody.
Assay [15] has as its target cynomolgus IL-23 (cynomolgus). Nature of the assay: cell-based or functional assay. The source holds these as a separate data set.
The target in assay [16] is T1, recombinant human IL-23 (p19/p40). Nature of the assay: cell-based or functional assay. The source holds these as a separate data set.
Assay [17] concerns the target T2, cynomolgus IL-23 (cynomolgus).
T2 construct: also called cyno IL-23; cIL-23
In words: alpha-screen, cIL-23/IL-23R.

Assay [18] deals with T1, recombinant human IL-23 (p19/p40). Nature of the assay: cell-based or functional assay. This is another data set of the same source.
Assay [19] shares this target. Nature of the assay: cell-based or functional assay. This is another data set of the same source.
The target in assay [20] is T2, cynomolgus IL-23. In words: cell-based or functional assay. The source holds these as a separate data set.
In assay [21] the target is T1, recombinant human IL-23 (p19/p40). Nature of the assay: cell-based or functional assay. This is another data set of the same source.

B1: P23IL37D5v16 (VHH)
VHH: EVQLLESGGGLVQPGGSLRLSCAASGFTLDYLAIGWFRQAPGKGREGVSCVSSSGQYTYYADSVKGRFTISRDNSKNTVYLQMNSLRPEDTAVYYCATDPECYRVRGYYNGEYDYWGQGTLVTVSS
notes: Humanization variant of 37D5
As for B1, the results for the IC50 in assay [1] and in [2] were 0.044 nM and 0.0888 nM, respectively.

B2: P23IL81G2-BASIC (VHH, name in Kabat numbering)
VHH: EVQLVESGGGLVQPGGSLRLSCIASGLPFSTKSMGWFRQAPGKGREFVARISPGGTSRYYGDFVKGRFAISRDNAKNTTWLQMNSLKAEDTAVYYCASGERSTYIGSNYYRTNEYDYWGTGTLVTVSS
notes: The sentence giving the two substitutions prints 'P23IL81A12basic' within the 81G2 paragraph
B2: the koff in assay [3] stood at 0.00032 s⁻¹.

B3: P23IL81G2 (VHH)
VHH: EVQLVESGGGLVQPGGSLRLSCIASGLPFSTKSMGWFRQAPGKEREFVARISPGGTSRYYGDFVKGRFAISRDNAKNTTWLQMNSLKAEDTAVYYCASGERSTYIGSNYYRTNEYDYWGTGTQVTVSS
notes: p19- Nanobody
Consider B3, for which the Kd in assay [4] worked out at 0.75 nM. Besides, the koff in [3] turned out to be 0.00034 s⁻¹; in [5] it was 0.00039 s⁻¹. Moreover, in assay [5], the kon worked out at 520000 M⁻¹ s⁻¹.

B4: P23IL81G2v11 (VHH)
VHH: EVQLLESGGGLVQPGGSLRLSCAASGLPFSTKSMGWFRQAPGKGREFVSRISPGGTSRYYGDFVKGRFTISRDNSKNTLYLQMNSLRAEDTAVYYCASGERSTYIGSNYYRTNEYDYWGQGTLVTVSS
notes: Final humanization variant of 81G2
As for B4, in [4], the Kd stood at 0.51 nM. Moreover, in assay [5], the koff was found to be 0.00031 s⁻¹ and the kon came to 610000 M⁻¹ s⁻¹.

B5: P23IL119A3V16-35GS-81G2V11-HSA (bispecific antibody)
chain: EVQLLESGGGLVQPGGSLRLSCAASGRIFSLPASGNIFNLLTIAWYRQAPGKGRELVATINSGSRTYYADSVKGRFTISRDNSKKTLYLQMNSLRPEDTAVYYCQTSGSGSPNFWGQGTLVTVSSGGGGSGGGGSGGGGSGGGGSGGGGSGGGGSGGGGSEVQLLESGGGLVQPGGSLRLSCAASGLPFSTKSMGWFRQAPGKGREFVSRISPGGTSRYYGDFVKGRFTISRDNSKNTLYLQMNSLRAEDTAVYYCASGERSTYIGSNYYRTNEYDYWGQGTLVTVSS
notes: also called P23IL0065; 23IL0065; not shown: full length human serum albumin fused directly to the C-terminus
As to B5, the IC50 in [6] was 0.038 nM. Also, the “IC50, BA/F3 proliferation assay, 76 pM hIL-23” value (from here on “IC50, BA/F3 proliferation assay”) in assay [7] is 125 pM. Besides, the “IC50, splenocyte assay, 3.8 pM cIL-23” value with cynomolgus IL-23 [8] turned out to be 6.7 pM. For the same molecule, the “IC50, splenocyte assay, 19 pM hIL-23” value in assay [9] stood at 4.6 pM.

B6: P23IL81A12 (VHH)
VHH: EVQLVESGGGLVQAGGSLRLSCAASGRTLSSYAMGWFRQAPGKEREFVARISQGGTAIYYADSVKGRFTISRDNAKNTVYLQMNSLKPEDTAVYYCAKDPSPYYRGSAYLLSGSYDSWGQGTQVTVSS
notes: p19- Nanobody
B6: the koff in assay [10] is 0.00022 s⁻¹. In addition, in assay [11], the Kd was 0.38 nM, the dissociation rate constant (koff) stood at 0.00021 s⁻¹ and the kon amounted to 560000 M⁻¹ s⁻¹.

B7: P23IL81A12-BASIC (VHH)
VHH: EVQLVESGGGLVQPGGSLRLSCAASGRTLSSYAMGWFRQAPGKEREFVARISQGGTAIYYADSVKGRFTISRDNAKNTLYLQMNSLRPEDTAVYYCAKDPSPYYRGSAYLLSGSYDSWGQGTLVTVSS
Take B7: the koff in assay [10] is 0.00024 s⁻¹.

B8: P23IL-121A2-9GS-119G7 (bispecific antibody)
chain: EVQLVESGGGLVQAGGSLRLSCAASGSIFNFNYMGWFRQAPGKEREFVAAIRWSGSSTYYADSVKGRFTISRDDAKNTVALQMNSLKPEDTAIYYCALRKGIPYSTSDRVIKGVNDYDYWGQGTQVTVSSGGGGSGGGSEVQLVESGGGLVQAGGSLTLSCAVSGLTFNNYAMGWFRQVPGKEREFVAAISRSGLRTFYSDSVKGRFTISRDSAKSTVYVQMNNLKPEDTAVYFCAADRRTYYSEGPSLTDTLRYDYWGQGTQVTVSS
Turning to B8, the “IC50, splenocyte assay, 37 pM hIL-23” value in assay [12] amounted to 4760 pM.

B9: P23IL119A3v16 (VHH)
VHH: EVQLLESGGGLVQPGGSLRLSCAASGRIFSLPASGNIFNLLTIAWYRQAPGKGRELVATINSGSRTYYADSVKGRFTISRDNSKKTLYLQMNSLRPEDTAVYYCQTSGSGSPNFWGQGTLVTVSS
notes: Final humanization variant of 119A3
B9: the 50% inhibitory concentration (IC50) in assay [13] was 1.24 nM; with cynomolgus IL-23 [17] it was 0.7 nM. Further, the koff in assay [14] was 0.0055 s⁻¹ and 0.0019 s⁻¹. Also, the “IC50, splenocyte assay cIL-23” value with cynomolgus IL-23 [15] stood at 82.6 nM. The “IC50, splenocyte assay hIL-23” value in assay [16] came to 45.1 nM.

B10: P23IL-121A2-35GS-119G7 (bispecific antibody)
chain: EVQLVESGGGLVQAGGSLRLSCAASGSIFNFNYMGWFRQAPGKEREFVAAIRWSGSSTYYADSVKGRFTISRDDAKNTVALQMNSLKPEDTAIYYCALRKGIPYSTSDRVIKGVNDYDYWGQGTQVTVSSGGGGSGGGGSGGGGSGGGGSGGGGSGGGGSGGGGSEVQLVESGGGLVQAGGSLTLSCAVSGLTFNNYAMGWFRQVPGKEREFVAAISRSGLRTFYSDSVKGRFTISRDSAKSTVYVQMNNLKPEDTAVYFCAADRRTYYSEGPSLTDTLRYDYWGQGTQVTVSS
For the molecule B10, the “IC50, splenocyte assay (mIL-17)” value in assay [18] is 0.03 to 0.06 nM. Besides, in assay [12], the “IC50, splenocyte assay, 37 pM hIL-23” value turned out to be 42 pM. Moreover, the “IC50, splenocyte assay, 19 pM hIL-23” value in [19] turned out to be 26 pM.

B11: P23IL119A3V16-35GS-81G2V11-GGGC-PEG40 linear (bispecific antibody)
chain: EVQLLESGGGLVQPGGSLRLSCAASGRIFSLPASGNIFNLLTIAWYRQAPGKGRELVATINSGSRTYYADSVKGRFTISRDNSKKTLYLQMNSLRPEDTAVYYCQTSGSGSPNFWGQGTLVTVSSGGGGSGGGGSGGGGSGGGGSGGGGSGGGGSGGGGSEVQLLESGGGLVQPGGSLRLSCAASGLPFSTKSMGWFRQAPGKGREFVSRISPGGTSRYYGDFVKGRFTISRDNSKNTLYLQMNSLRAEDTAVYYCASGERSTYIGSNYYRTNEYDYWGQGTLVTVSSGGGC
modifications: linear mPEG40 (maleimide) on the C-terminal Cys of GGGC
notes: also called P23IL0063; 23IL0063
Take B11: the IC50 in assay [6] came to 0.025 nM. Moreover, the “IC50, BA/F3 proliferation assay” value in [7] was determined as 71 pM. For the same molecule, in the assay with cynomolgus IL-23 [8], the “IC50, splenocyte assay, 3.8 pM cIL-23” value is 13.1 pM. Further, the “IC50, splenocyte assay, 19 pM hIL-23” value in [9] came to 2.7 pM.

B12: P23IL119A3-35GS-81G2-GGGC-PEG40 linear (bispecific antibody)
chain: EVQLVESGGGLVQAGGSLRLSCAASGRIFSLPASGNIFNLLTIAWHRQAPGMQRELVATINSGSRTNYADSVKGRFTISRDNAQKTVYLQMNNLKPEDTAVYYCQTSGSGSPNFWGQGTQVTVSSGGGGSGGGGSGGGGSGGGGSGGGGSGGGGSGGGGSEVQLVESGGGLVQPGGSLRLSCIASGLPFSTKSMGWFRQAPGKEREFVARISPGGTSRYYGDFVKGRFAISRDNAKNTTWLQMNSLKAEDTAVYYCASGERSTYIGSNYYRTNEYDYWGTGTQVTVSSGGGC
modifications: linear mPEG40 (maleimide) on the C-terminal Cys of GGGC
Consider B12, for which the “IC50, BA/F3 proliferation assay” value in assay [7] came to 71 pM. For the same molecule, the “IC50, splenocyte assay, 3.8 pM cIL-23” value with cynomolgus IL-23 [8] and with cynomolgus IL-23 [20] was 4.7 pM in each case. Besides, the “IC50, splenocyte assay, 19 pM hIL-23” value in [9] and in [19] was 7.1 pM in each case. The “IC50, BAF3 proliferation assay, 76 pM hIL-23” value in assay [21] amounted to 58.5 pM.
